{"source": "the supplement of paper PMC12783771", "parents": {"B1": {"name": "library; numbered along this chain (parent)", "chain": "MNIQIGELAKRTACPVVTIRFYEQEGLLPPPGRSRGNFRLYGEEHVERLQFIRHCRSLDMPLSDVRTLLSYRKRPDQDCGEVNMLLDEHIRQVESRIGALLELKHHLVELREACSGARPAQSCGILQGLSDCVCDTRGTTAHPSD"}}, "key": {"[1]": {"variants_of": "B1", "assay": "sfGFP reporter fluorescence (15 h) (µM FITC); higher = higher leak", "conditions": "library round: Round 1; ligand: none", "description": "(§1)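 Cell-free biosensing: 1 µL Echo-assembled CFE reactions with linear PbrR variant templates (5 nM) and pPbrR-sfGFP reporter, with 1 µM Pb, 30 µM Zn or no ligand; endpoint sfGFP fluorescence after 15 h at 30 °C calibrated as µM FITC. Round 1 ML-predicted PbrR mutants; 3 biological replicates.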"}, "[2]": {"variants_of": "B1", "assay": "sfGFP reporter fluorescence (15 h) (µM FITC); higher = stronger transcriptional activation", "conditions": "library round: Round 1", "description": "as §1"}}, "note": "± gives the standard deviation of the averaged measurements."}
{"variant": "MNIQIGELAKRTACAVVTIRFYEQEGLLPPPGRSRGNFRLYGEEHVERLQFIRHCRSLDMNLSDVRTLLSYRKRPDQDCGEVNMLLDEHIRQVESRIGALLELKHHLVELREACSGARPAQSCGILQGLSDCVCDTRGTTAHPSD", "values": [{"measurement": "sfGFP reporter fluorescence", "setting": "[1]", "value": "0.0831 ± 0.0029"}, {"measurement": "sfGFP reporter fluorescence", "setting": "[2]; ligand: 1 µM Pb", "value": "0.12 ± 0.017"}, {"measurement": "sfGFP reporter fluorescence", "setting": "[2]; ligand: 30 µM Zn", "value": "0.573 ± 0.031"}]}
{"variant": "MNIQIGELAKRTACAVVTIRFYEQEGLLPPPGRSRGNFRLYGEEHVERLQFIRHCRSLDMLLSDVRTLLSYRKRPDQDCGEVNMLLDEHIRQVESRIGALLELKHHLVELREACSGARPAQSCGILQGLSDCVCDTRGTTAHPSD", "values": [{"measurement": "sfGFP reporter fluorescence", "setting": "[1]", "value": "0.0735 ± 0.0017"}, {"measurement": "sfGFP reporter fluorescence", "setting": "[2]; ligand: 1 µM Pb", "value": "0.0722 ± 0.0038"}, {"measurement": "sfGFP reporter fluorescence", "setting": "[2]; ligand: 30 µM Zn", "value": "0.0794 ± 0.002"}]}
{"variant": "MNIQIGELAKRTACPCVTIRFYEQEGLLPPPGRSRGNFRLYGEEHCERLQFIRHCRSLDMPLSDVRTLLSYRKRPDQDCGEVNMLLDEHIRQVESRIGALLELKHHLVELREACSGARPAQSCGILQGLSDCVCDTRGTTAHPSD", "values": [{"measurement": "sfGFP reporter fluorescence", "setting": "[1]", "value": "0.0646 ± 0.0017"}, {"measurement": "sfGFP reporter fluorescence", "setting": "[2]; ligand: 1 µM Pb", "value": "0.066 ± 0.0025"}, {"measurement": "sfGFP reporter fluorescence", "setting": "[2]; ligand: 30 µM Zn", "value": "0.0632 ± 0.0019"}]}
{"variant": "MNIQIGELAKRTACPCVTIRFYEQEGLLPPPGRSRGNFRLYGEEHVERLQFIRHCRSLDMPLSDVRTLLSYRKRPDQDCGEVNMLLDEHIRQVESRIGALLELVHHLVELREACSGARPAQSCGILQGLSDCVCDTRGTTAHPSD", "values": [{"measurement": "sfGFP reporter fluorescence", "setting": "[1]", "value": "0.0623 ± 0.0024"}, {"measurement": "sfGFP reporter fluorescence", "setting": "[2]; ligand: 1 µM Pb", "value": "0.0778 ± 0.0038"}, {"measurement": "sfGFP reporter fluorescence", "setting": "[2]; ligand: 30 µM Zn", "value": "0.0911 ± 0.012"}]}
{"variant": "MNMQIGELAKRTACPVVTIRFYEQEGLLPPPGRSRGNFRLYGEEHVERLQFIRHCRSLDMPLSDVRTLLSYRKRPDQDCGEVNMLLDEHIRQVESRIGALLELKHHLVELREACSGARPAQSCGILQGLSCCVCDTRGTTAHPSD", "values": [{"measurement": "sfGFP reporter fluorescence", "setting": "[1]", "value": "0.066 ± 0.0019"}, {"measurement": "sfGFP reporter fluorescence", "setting": "[2]; ligand: 1 µM Pb", "value": "0.102 ± 0.016"}, {"measurement": "sfGFP reporter fluorescence", "setting": "[2]; ligand: 30 µM Zn", "value": "0.446 ± 0.039"}]}
{"variant": "MNIQIGELAARTACPVVTIRFYEQEGLLPPPGRSRGNFRLYGEEHTERLQFIRHCRSLDMPLSDVRTLLSYRKRPDQDCGEVNMLLDEHIRQVESRIGALLELKHHLVELREACSGARPAQSCGILQGLSDCVTDTRGTTAHPSD", "values": [{"measurement": "sfGFP reporter fluorescence", "setting": "[1]", "value": "0.0627 ± 0.0013"}, {"measurement": "sfGFP reporter fluorescence", "setting": "[2]; ligand: 1 µM Pb", "value": "0.0699 ± 0.0061"}, {"measurement": "sfGFP reporter fluorescence", "setting": "[2]; ligand: 30 µM Zn", "value": "0.226 ± 0.021"}]}
{"variant": "MNGQIGELAKRTACPVVTIRFYEQEGLLPPPGRSRGNFRLYGEEHVERLQFIRHCRSLDMPLSDVRTLLSYRKRPDQDCGEVNMLLDEHIRQVESRIGALLELVHHLVELREACSGARPAQSCGILQGLSDCVCDTRGTTAHPSD", "values": [{"measurement": "sfGFP reporter fluorescence", "setting": "[1]", "value": "0.0618 ± 0.0017"}, {"measurement": "sfGFP reporter fluorescence", "setting": "[2]; ligand: 1 µM Pb", "value": "0.06841 ± 0.00056"}, {"measurement": "sfGFP reporter fluorescence", "setting": "[2]; ligand: 30 µM Zn", "value": "0.0899 ± 0.0043"}]}
